# T1: DSN1 (subunit of Mis12C in the KMN structure) (human, UniProt Q9H410 1-356)
# T1 construct: DSN1, human; also called DSN1^SORT-HIS; source: Tnao38 insect cells (baculovirus), co-expressed in Mis12C, purified (Talon, SEC)
# T1 sequence (looked up): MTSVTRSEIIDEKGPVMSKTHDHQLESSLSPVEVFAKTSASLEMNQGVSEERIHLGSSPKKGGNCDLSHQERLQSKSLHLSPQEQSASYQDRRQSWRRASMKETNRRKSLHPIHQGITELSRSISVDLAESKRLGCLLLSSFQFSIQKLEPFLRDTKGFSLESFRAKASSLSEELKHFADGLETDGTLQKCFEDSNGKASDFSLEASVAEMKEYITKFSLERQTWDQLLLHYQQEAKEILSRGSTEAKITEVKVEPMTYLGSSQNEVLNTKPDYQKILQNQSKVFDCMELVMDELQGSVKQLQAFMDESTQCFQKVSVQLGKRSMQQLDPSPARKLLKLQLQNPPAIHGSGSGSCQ
# T2: NSL1 (subunit of Mis12C in the KMN structure) (human, UniProt Q96IY1 1-281)
# T2 construct: NSL1, human; source: Tnao38 insect cells (baculovirus), co-expressed in Mis12C, purified (Talon, SEC)
# T2 sequence (looked up): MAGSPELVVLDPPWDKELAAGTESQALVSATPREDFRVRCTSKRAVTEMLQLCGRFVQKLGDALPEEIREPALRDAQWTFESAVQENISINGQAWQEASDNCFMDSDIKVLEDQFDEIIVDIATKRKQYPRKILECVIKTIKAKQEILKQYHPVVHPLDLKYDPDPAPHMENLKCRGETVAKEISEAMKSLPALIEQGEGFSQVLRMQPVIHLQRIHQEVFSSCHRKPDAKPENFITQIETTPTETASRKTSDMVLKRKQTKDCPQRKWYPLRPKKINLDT
# T3: SPC25_(92–224) (human, UniProt Q9HBM1 92-224)
# T3 construct: SPC25, human, residues 92–224 (RWD domain); source: E. coli BL21(DE3)-codon-plus-RIPL, co-purified with SPC24 (glutathione-agarose, 3C protease, SEC)
# T3 sequence (looked up): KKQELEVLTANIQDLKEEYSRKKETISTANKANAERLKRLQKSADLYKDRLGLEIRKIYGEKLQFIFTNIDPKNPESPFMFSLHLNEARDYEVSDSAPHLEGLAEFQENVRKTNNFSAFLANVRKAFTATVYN
# T4: Mis12 complex (Mis12C), full length: MIS12, PMF1, NSL1, DSN1 (human, UniProt Q9H081 1-205; Q6P1K2 1-205; Q96IY1 1-281; Q9H410 1-356)
# T4 construct: MIS12, human, subunit of the Mis12 complex; PMF1, human, subunit of the Mis12 complex; NSL1, human, subunit of the Mis12 complex; DSN1, human, subunit of the Mis12 complex (DSN1^SORT-HIS); In BLI one partner was biotinylated by sortase (GGGG-biotin peptide); also called Mis12C^WT; wild-type Mis12C; source: Tnao38 insect cells (baculovirus from pBIG1A), purified (Talon, SEC); copies: + + +
# T4 sequence (looked up) 1: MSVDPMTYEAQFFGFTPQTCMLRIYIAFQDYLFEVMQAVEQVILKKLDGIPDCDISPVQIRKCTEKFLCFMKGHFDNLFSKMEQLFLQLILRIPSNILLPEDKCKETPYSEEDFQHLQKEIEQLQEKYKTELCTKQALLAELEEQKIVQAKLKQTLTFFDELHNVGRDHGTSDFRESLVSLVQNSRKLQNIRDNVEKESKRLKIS
# T4 sequence (looked up) 2: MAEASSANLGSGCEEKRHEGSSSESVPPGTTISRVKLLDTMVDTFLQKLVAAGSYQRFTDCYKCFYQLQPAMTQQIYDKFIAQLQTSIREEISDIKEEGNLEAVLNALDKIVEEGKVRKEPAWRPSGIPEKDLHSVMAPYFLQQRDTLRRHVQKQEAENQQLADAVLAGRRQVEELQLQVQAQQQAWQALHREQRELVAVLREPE
# T4 sequence (looked up) 3: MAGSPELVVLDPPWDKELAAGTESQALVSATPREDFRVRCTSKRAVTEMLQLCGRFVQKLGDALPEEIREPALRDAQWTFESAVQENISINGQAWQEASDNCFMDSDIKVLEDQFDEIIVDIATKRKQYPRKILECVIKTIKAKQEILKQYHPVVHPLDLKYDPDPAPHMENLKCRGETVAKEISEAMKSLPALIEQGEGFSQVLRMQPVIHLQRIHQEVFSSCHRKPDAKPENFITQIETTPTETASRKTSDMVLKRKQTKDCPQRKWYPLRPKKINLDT
# T4 sequence (looked up) 4: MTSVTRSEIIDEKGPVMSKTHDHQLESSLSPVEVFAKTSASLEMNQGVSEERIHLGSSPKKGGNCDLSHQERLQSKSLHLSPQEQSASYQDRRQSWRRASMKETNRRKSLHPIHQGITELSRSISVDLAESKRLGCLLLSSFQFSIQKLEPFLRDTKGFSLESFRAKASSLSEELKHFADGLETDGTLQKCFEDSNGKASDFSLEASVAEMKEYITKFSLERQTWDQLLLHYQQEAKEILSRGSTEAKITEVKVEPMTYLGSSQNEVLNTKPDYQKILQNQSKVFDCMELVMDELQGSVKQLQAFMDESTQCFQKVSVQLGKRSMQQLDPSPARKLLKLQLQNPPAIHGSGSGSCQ
# T5: Mis12C^M5 (NSL1 I216A) (human, UniProt Q9H081 1-205; Q6P1K2 1-205; Q96IY1 1-281; Q9H410 1-356, I216A)
# T5 construct: MIS12, human; PMF1, human; NSL1, human, with I216A on the α5 helix; DSN1, human; source: Tnao38 insect cells (baculovirus), purified (Talon, SEC); copies: + + +
# T5 sequence (looked up) 1: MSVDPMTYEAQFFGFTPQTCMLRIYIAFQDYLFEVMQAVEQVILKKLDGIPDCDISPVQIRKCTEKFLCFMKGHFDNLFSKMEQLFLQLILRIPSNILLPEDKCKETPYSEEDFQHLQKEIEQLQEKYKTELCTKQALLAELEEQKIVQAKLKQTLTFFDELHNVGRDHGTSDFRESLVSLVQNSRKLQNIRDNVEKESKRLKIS
# T5 sequence (looked up) 2: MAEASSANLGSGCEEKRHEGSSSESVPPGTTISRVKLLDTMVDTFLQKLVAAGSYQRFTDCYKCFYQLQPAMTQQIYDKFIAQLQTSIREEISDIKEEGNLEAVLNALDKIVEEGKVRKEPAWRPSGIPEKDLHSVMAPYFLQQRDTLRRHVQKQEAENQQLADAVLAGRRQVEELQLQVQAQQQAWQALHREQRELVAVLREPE
# T5 sequence (looked up) 3: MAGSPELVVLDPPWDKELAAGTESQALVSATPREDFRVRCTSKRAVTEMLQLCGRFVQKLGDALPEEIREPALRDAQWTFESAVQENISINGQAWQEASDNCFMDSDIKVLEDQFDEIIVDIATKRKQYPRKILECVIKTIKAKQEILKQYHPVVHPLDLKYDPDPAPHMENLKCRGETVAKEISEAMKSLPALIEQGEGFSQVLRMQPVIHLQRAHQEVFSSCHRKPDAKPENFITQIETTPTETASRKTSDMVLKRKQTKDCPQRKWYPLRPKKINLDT
# T5 sequence (looked up) 4: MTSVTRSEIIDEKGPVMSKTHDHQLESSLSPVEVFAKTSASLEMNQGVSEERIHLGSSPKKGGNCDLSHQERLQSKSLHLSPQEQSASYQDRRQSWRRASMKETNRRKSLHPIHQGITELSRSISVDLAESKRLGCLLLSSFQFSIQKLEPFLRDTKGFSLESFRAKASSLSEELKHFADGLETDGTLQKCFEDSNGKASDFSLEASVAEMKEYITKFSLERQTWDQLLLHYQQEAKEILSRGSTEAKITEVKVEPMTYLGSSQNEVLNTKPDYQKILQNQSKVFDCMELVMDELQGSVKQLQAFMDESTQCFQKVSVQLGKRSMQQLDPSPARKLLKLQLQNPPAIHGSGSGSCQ
# How the values were obtained:
# Conditions in all cases: both partners purified
# [1] = target: T1, DSN1 (subunit of Mis12C in the KMN …); assay: cryo-EM structure; eight-subunit KMN (full-length Mis12C, SPC24 109–197/SPC25 92–224, ZWINT, KNL1 2,021–2,342), 0.3 mg/ml with 0.003% Triton; reconstruction at 4.5 Å; model fitted from known structures and AF2 predictions and refined against the map
# [2] = target: T2, NSL1 (subunit of Mis12C in the KMN …); assay: as above
# SPC25_(92–224) = target: T3, SPC25_(92–224); assay: as above
# [3] = target: T4, Mis12 complex (Mis12C), full length: …; assay: ITC; PEAQ-ITC; 50 mM HEPES pH 8.0, 150 mM NaCl, 1 mM TCEP; 19 injections; one-site binding fit
# [4] = target: T4, Mis12 complex (Mis12C), full length: …; assay: BLI; Octet SA biosensors loaded with the biotinylated ligand, analyte at different concentrations; 25 °C; 50 mM HEPES pH 8.0, 150 mM NaCl, 2 mM TCEP, 0.05% Tween-20; which partner was loaded is not given
# Mis12C^M5 (NSL1 I216A) = target: T5, Mis12C^M5 (NSL1 I216A); assay: ITC; PEAQ-ITC; 50 mM HEPES pH 8.0, 150 mM NaCl, 1 mM TCEP; 19 injections; one-site binding fit
binding result [1],binding result [2],binding result (SPC25_(92–224)),Kd [3] [nM],Kd [4] [nM],fold reduction of binding affinity against the wild-type pair (Mis12C^M5 (NSL1 I216A)) [fold],Binder
binds,binds,binds,–,–,–,"SPC24_(109–197) (domain or fragment, human, UniProt Q8NBT2 109-197, looked up, source: E. coli BL21(DE3)-codon-plus-RIPL, co-purified with SPC25 (glutathione-agarose, 3C protease, SEC)) EELKEIEADLERQEKEVDEDTTVTIPSAVYVAQLYHQVSKIEWDYECEPGMVKGIHHGPSVAQPIHLDSTQLSRKFISDYLWSLVDTEW"
–,–,–,~1.6,~2,–,"KNL1 residues 2,026–2,342 (domain or fragment, human, UniProt Q8NG31 2026-2342, looked up, numbering of isoform 1 of the CASC5 gene; also called KNL1^WT; source: E. coli BL21(DE3)-Codon-plus-RIPL, purified (glutathione-agarose, TEV cleavage, SEC)) SAQNEREKLQIKIDEMDKILKKIDNCLTEMETETKNLEDEEKNNPVEEWDSEMRAAEKELEQLKTEEEELQRNLLELEVQKEQTLAQIDFMQKQRNRTEELLDQLSLSEWDVVEWSDDQAVFTFVYDTIQLTITFEESVVGFPFLDKRYRKIVDVNFQSLLDEDQAPPSSLLVHKLIFQYVEEKESWKKTCTTQHQLPKMLEEFSLVVHHCRLLGEEIEYLKRWGPNYNLMNIDINNNELRLLFSSSAAFAKFEITLFLSAYYPSVPLPSTIQNHVGNTSQDDIATILSKVPLENNYLKNVVKQIYQDLFQDCHFYH"
–,–,–,~46,–,~15,"full-length SPC24/SPC25 (complex, human, SPC24, human; SPC25, human; GST was cleaved off with 3C protease; also called SPC24/SPC25 heterodimer; SPC24/SPC25 pair; source: E. coli BL21(DE3)-codon-plus-RIPL, purified (glutathione-agarose, 3C protease, SEC)) chain 1: MAAFRDIEEVSQGLLSLLGANRAEAQQRRLLGRHEQVVERLLETQDGAEKQLREILTMEKEVAQSLLNAKEQVHQGGVELQQLEAGLQEAGEEDTRLKASLLQLTRELEELKEIEADLERQEKEVDEDTTVTIPSAVYVAQLYHQVSKIEWDYECEPGMVKGIHHGPSVAQPIHLDSTQLSRKFISDYLWSLVDTEW chain 2: MVEDELALFDKSINEFWNKFKSTDTSCQMAGLRDTYKDSIKAFAEKLSVKLKEEERMVEMFLEYQNQISRQNKLIQEKKDNLLKLIAEVKGKKQELEVLTANIQDLKEEYSRKKETISTANKANAERLKRLQKSADLYKDRLGLEIRKIYGEKLQFIFTNIDPKNPESPFMFSLHLNEARDYEVSDSAPHLEGLAEFQENVRKTNNFSAFLANVRKAFTATVYN"

# From article PMC11189300, “Structure of the human KMN complex and implications for regulation of its assembly” (Nature Structural & Molecular Biology, 2024)
